The target in the assay is T1, extended S2 fusion intermediate of the SARS-CoV-2 spike (after S1 dissociation) (SARS-CoV-2, Victoria (probably …, UniProt P0DTC2, strain)).
T1 construct: A conformational and proteolytic state of m1, seen between the virion and ACE2VLP membranes; also called extended intermediate; extended S2 intermediate
The assay can be described thus: cryo-electron tomography; virions pre-incubated with WS6 (200 ug/ml, 1 h, 37 °C), then ACE2VLPs and trypsin for 30 min at 37 °C, PFA-fixed. The following applies: one partner purified.

B1: WS6 S2 stem-helix broadly neutralizing antibody (antibody, V domains shown)
VH: EVQFQQSGTVLARPGASVKMSCKASGYTFTNYWIHWVKQRPGQGLEYIGGTYPGNGDTTYNQKFKGKAKVTAVTPTSTAYMDLSSLTNEDSAVYYCTRTGSYFDYWGQGTTLTVSS
VL: QIVLTQSPAIMSASPGEKVTISCSATSSVSYIYWYQQRPGSSPKPWIYRTSNLASGVPVRFSGSGSGTSYSLTISNMEAEDAATYYCQQYQSYPPTFGAGTKLELK
notes: mouse-derived antibody; Whole antibody with two arms was used (200 ug/ml in PBS); also called WS6 S2 antibody; spike stalk antibody WS6; copies: 2 + 2
Regarding B1, the binding result is recorded as “binds”.

The values are drawn from article PMC12134289 (Nature Communications, 2025).
